Results published in the Human Domainome abundance scans (Beltran et al. 2025).

B1: Retinoic acid receptor RXR-alpha, residues 132 to 208; numbered along this chain, P19793 (parent)
chain: KHICAICGDRSSGKHYGVYSCEGCKGFFKRTVRKDLTYTCRDNKDCLIDKRQRNRCQYCRYQKCLAMGMKREAVQEE

Variants of: B1
Experiment: abundance fitness (aPCA) (normalised: wild type 0, dead -1); higher = more abundant; growth selection in yeast, the domain comes from the species named
Conditions: Homo sapiens

Abundance fitness, by site and new letter:
N54: D -0.128, Y -0.061, H 0.117, S -0.167
D49: K 0.026, E -0.005, G 0.07, P -0.018, F -0.109, C -0.117, Y -0.183, A 0.009, V 0.036, T -0.07, R -0.183, S -0.037, N 0.048, Q 0.036, W 0.06, H -0.011, L -0.102, I 0.069
V74: P -0.002, W -0.074, L -0.046, N -0.064, S -0.059, I -0.017, R -0.03, Q -0.007, Y -0.039, A -0.045, M -0.025, T 0, G -0.028, C 0.017, H -0.021, K 0.056, D -0.039, E -0.018
I48: D -0.031, N 0.065, T 0, H 0.061, R -0.02, F -0.108, V 0.051, C -0.035, L 0.016, Q 0.21, E -0.162, W 0.007, Y -0.342, P -0.007, M 0.03, A -0.05, G -0.007, S -0.04, K 0.094
A73: Q -0.04, S 0.004, P 0.011, E -0.011, I 0.05, L -0.027, W -0.007, G -0.008, K -0.081, T 0.009, V -0.019, C 0.04, M 0.044, N 0.015, F -0.01, D 0.048, R -0.037, Y -0.056
E72: C -0.047, I 0.046, A -0.022, L -0.046, D 0.047, G -0.096, V 0.16, M -0.07, Q -0.042, F -0.19, R -0.017, S 0.034, P -0.12, H -0.109, W 0.041, T -0.026
L47: Y -0.03, W 0.005, V -0.008, T 0.012
K70: S 0.002, N 0.061, L 0.01, M -0.034, D 0.006, F 0.043, Y 0.037, R -0.012, Q -0.01, P 0.021, E -0.074, H 0.037, W -0.005, V 0.04, A -0.014, I 0.035
L65: T 0.057, D -0.133, A -0.038, F -0.036, Y 0.015, K -0.008, M -0.058, H -0.078, I -0.132, C 0.044, R -0.111, G -0.148, V 0.033, Q 0.021, S -0.061, W -0.108, N 0.11
C59: I -0.977, A -0.748, G -0.861, V -0.915, H -0.066, D -0.647, K -1.05, T -0.651, Y -0.418, N -1.13, R -0.955, P -0.753, E -0.59, W -0.427, F -1.05, M -1.08, S -0.657, L -0.911
R71: S 0.003, F 0.01, Y 0.006, T 0.019, K 0.043, H -0.007, P 0.005, N 0.015, D 0.065, G -0.004, Q 0.001, L 0.033, A 0.033, E 0.006, I 0.028, M -0.01, C -0.001, W -0.056, V 0.021
